From article PMC10200060 (2023)

T1: human recombinant HMGB1 protein (high-mobility group box-1) (human, UniProt P09429 1-215)
T1 chain: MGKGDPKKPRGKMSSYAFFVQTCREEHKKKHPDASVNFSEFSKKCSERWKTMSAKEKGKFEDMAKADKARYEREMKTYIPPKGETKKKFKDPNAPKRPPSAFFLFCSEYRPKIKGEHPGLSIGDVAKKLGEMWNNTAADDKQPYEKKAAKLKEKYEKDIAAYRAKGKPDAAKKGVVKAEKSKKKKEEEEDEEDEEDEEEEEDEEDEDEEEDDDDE

B1: lactoferrin-glycyrrhizin conjugate Lf-GL (1:15) (other)
chain: GRRRSVQWCAVSQPEATKCFQWQRNMRKVRGPPVSCIKRDSPIQCIQAIAENRADAVTLDGGFIYEAGLAPYKLRPVAAEVYGTERQPRTHYYAVAVVKKGGSFQLNELQGLKSCHTGLRRTAGWNVPIGTLRPFLNWTGPPEPIEAAVARFFSASCVPGADKGQFPNLCRLCAGTGENKCAFSSQEPYFSYSGAFKCLRDGAGDVAFIRESTVFEDLSDEAERDEYELLCPDNTRKPVDKFKDCHLARVPSHAVVARSVNGKEDAIWNLLRQAQEKFGKDKSPKFQLFGSPSGQKDLLFKDSAIGFSRVPPRIDSGLYLGSGYFTAIQNLRKSEEEVAARRARVVWCAVGEQELRKCNQWSGLSEGSVTCSSASTTEDCIALVLKGEADAMSLDGGYVYTAGKCGLVPVLAENYKSQQSSDPDPNCVDRPVEGYLAVAVVRRSDTSLTWNSVKGKKSCHTAVDRTAGWNIPMGLLFNQTGSCKFDEYFSQSCAPGSDPRSNLCALCIGDEQGENKCVPNSNERYYGYTGAFRCLAENAGDVAFVKDVTVLQNTDGNNNEAWAKDLKLADFALLCLDGKRKPVTEARSCHLAMAPNHAVVSRMDKVERLKQVLLHQQAKFGRNGSDCPDKFCLFQSETKNLLFNDNTECLARLHGKTTYEKYLGPQYVAGITNLKKCSTSPLLEACEFLRK
modifications: glycyrrhizin (oxidised with sodium periodate) coupled to amines of Lf by Schiff-base reaction and reduction with NaBH3CN; ratio Lf:GL 1:15 as printed; modified residues not identified
B2: lactoferrin human (Lf) (natural protein)
chain: B1 chain
B3: lactoferrin-glycyrrhizin conjugate Lf-GL (1:10) (other)
chain: B1 chain
modifications: glycyrrhizin (oxidised with sodium periodate) coupled to amines of Lf by Schiff-base reaction and reduction with NaBH3CN; binding ratio Lf:GL 1:10 (1:9.6 by MALDI-TOF, 86,727.3 Da); modified residues not identified
B4: lactoferrin-glycyrrhizin conjugate Lf-GL (1:4) (other)
chain: B1 chain
modifications: glycyrrhizin (oxidised with sodium periodate) coupled to amines of Lf by Schiff-base reaction and reduction with NaBH3CN; ratio Lf:GL 1:4 as printed; modified residues not identified

Molecular target: T1, human recombinant HMGB1 protein …
Experiment: SPR

Point of comparison: B2, koff 0.0134 s⁻¹. Against it:
- B1 — 14-fold lower, 0.000965 s⁻¹
- B3 — 43-fold lower, 0.000311 s⁻¹
- B4 — 8.5-fold lower, 0.00158 s⁻¹
